Consider three molecules from patent publication USRE49477 (THOMAS JEFFERSON UNIVERSITY, dated 2023).

The target of assay [1] is T1, human procollagen I α2 chain (human, UniProt P08123 23-1366).
T1 construct: The separated chain as it stood on the Western blot membrane; With the chimeric IgG, a partially degraded form was also positive; also called Pro-α2; collagen α2-chain
The assay is described as follows: Western blot, procollagen I chains on membrane, anti-human γ-HRP detection. In general terms: In western blotting, separated proteins are transferred to a membrane and probed.

Assay [2] has as its target T1, human procollagen I α2 chain. The assay is described as follows: Western blot, procollagen I chains on membrane, anti-FLAG-HRP detection.
Assay [3] shares this target. In words: Western blot, procollagen I chains on membrane, anti-His-HRP detection.

T1 sequence (P08123 23-1366 limits assumed): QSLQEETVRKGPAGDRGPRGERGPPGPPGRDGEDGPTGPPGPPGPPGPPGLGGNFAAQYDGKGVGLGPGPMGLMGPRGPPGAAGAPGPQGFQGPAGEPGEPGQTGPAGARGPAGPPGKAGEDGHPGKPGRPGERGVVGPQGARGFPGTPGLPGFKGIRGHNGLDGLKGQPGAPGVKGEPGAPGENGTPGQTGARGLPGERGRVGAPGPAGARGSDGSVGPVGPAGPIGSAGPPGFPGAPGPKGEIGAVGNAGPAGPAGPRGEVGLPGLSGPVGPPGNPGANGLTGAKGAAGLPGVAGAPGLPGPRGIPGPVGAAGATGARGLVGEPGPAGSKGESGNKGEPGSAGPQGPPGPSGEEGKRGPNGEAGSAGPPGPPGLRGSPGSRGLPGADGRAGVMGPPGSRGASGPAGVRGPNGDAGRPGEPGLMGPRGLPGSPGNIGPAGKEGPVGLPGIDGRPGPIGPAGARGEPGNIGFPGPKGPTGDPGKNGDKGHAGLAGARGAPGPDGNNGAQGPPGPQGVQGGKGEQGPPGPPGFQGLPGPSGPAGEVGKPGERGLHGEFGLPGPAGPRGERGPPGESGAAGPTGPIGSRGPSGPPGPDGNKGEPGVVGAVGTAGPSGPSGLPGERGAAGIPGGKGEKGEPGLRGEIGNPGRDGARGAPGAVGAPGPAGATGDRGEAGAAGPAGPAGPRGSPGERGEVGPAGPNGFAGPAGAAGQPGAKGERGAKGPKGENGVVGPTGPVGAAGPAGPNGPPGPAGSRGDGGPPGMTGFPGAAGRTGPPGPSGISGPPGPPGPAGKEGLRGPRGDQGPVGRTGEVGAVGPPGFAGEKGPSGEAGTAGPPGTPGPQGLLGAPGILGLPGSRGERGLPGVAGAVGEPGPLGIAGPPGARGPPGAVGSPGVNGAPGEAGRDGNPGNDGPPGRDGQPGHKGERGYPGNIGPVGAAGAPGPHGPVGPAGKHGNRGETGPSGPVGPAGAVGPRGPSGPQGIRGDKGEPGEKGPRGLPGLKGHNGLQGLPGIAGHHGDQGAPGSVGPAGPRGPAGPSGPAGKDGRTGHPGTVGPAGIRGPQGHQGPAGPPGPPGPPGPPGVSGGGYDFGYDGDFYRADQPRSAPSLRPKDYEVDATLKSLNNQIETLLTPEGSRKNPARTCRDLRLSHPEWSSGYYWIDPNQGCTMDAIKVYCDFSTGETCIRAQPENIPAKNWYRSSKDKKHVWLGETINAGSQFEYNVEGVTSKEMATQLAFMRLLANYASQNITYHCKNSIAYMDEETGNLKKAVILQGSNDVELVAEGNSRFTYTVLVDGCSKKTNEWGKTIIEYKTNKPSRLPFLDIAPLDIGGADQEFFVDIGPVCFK

B1: mouse-human chimeric IgG consisting of the mVH-hγ and mVL-hκ chains (antibody, V domains shown)
VH: QIQLVQSGPELKKPGETVKISCKASGYTFTDYPLHWVKQAPGKGLQWMAWINTETGEPTYADDFTGRFAFSLETSASTAYLQINNLKNEDTATYFCVRGYYYYWGQGTTLSVSS
VL: DIVMSQSPSSLAVSAGEKVTMSCKSSQSLLNSRTRKNNLAWYQQKPGQSPKLLIYWASTRESGVPDRFTGSGSGTDFTLTISSVQAEDLAVYYCKQSYNLWTFGGGTKLEIKR
notes: The constant regions are human IgG1 γ (pFUSE-CHIg-hG1) and human κ (pFUSE2-CLIg-hk); The antibody was expressed in CHO cells and purified on Protein-L; also called chimeric antibody; CHO-IgG
With B1, the binding result in assay [1] is “binds”.

B2: bacterial-derived scFv variant (anti-α2Ct single chain antibody, FLAG-tagged) (scFv)
scFv: MDIVMSQSPSSLAVSAGEKVTMSCKSSQSLLNSRTRKNNLAWYQQKPGQSPKLLIYWASTRESGVPDRFTGSGSGTDFTLTISSVQAEDLAVYYCKQSYNLWTFGGGTKLEIKVDGGGGSGGGGSGGGGSLEQIQLVQSGPELKKPGETVKISCKASGYTFTDYPLHWVKQAPGKGLQWMAWINTETGEPTYADDFTGRFAFSLETSASTAYLQINNLKNEDTATYFCVRGYYYYWGQGTTLSVSSDYKDDDDK
In the case of B2, in assay [2], the binding result is recorded as “binds”.

B3: His-tagged yeast-derived A_L_K scFv variant (scFv)
scFv: QIQLVQSGPELKKPGETVKISCKASGYTFTDYPLHWVKQAPGKGLQWMAWINTETGEPTYADDFTGRFAFSLETSASTAYLQINNLKNEDTATYFCVRGYYYYWGQGTTLSVSSGGGGSGGGGSGGGGSGGGGSGGGGSGGGGSDIVMSQSPSSLAVSAGEKVTMSCKSSQSLLNSRTRKNNLAWYQQKPGQSPKLLIYWASTRESGVPDRFTGSGSGTDFTLTISSVQAEDLAVYYCKQSYNLWTFGGGTKLEIKRHHHHHH
notes: It was secreted from yeast using pPIC-9K; also called yeast scFv variant
For the molecule B3, the binding result in assay [3] is “binds”.
